Key:
[1] = target: T1, Full length human CD40 (huCD40) on cells (human, UniProt P25942 21-277); test: cell-based or functional assay
Target sequence in this assay (P25942 21-277): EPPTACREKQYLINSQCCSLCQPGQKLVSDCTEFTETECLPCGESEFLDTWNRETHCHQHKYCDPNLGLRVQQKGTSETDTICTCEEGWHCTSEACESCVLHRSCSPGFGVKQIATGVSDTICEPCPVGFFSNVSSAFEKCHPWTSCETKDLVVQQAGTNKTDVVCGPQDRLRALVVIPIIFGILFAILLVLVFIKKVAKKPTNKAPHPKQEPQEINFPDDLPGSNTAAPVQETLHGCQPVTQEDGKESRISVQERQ

[2] = target: T1, Full length human CD40 (huCD40) on cells; test: cell-based or functional assay; remark: listed apart in the source
Target sequence in this assay (P25942 21-277): as above

[3] = target: T1, Full length human CD40 (huCD40) on cells; test: cell-based or functional assay; remark: listed apart in the source
[4] = target: T1, Full length human CD40 (huCD40) on cells; test: flow cytometry, human DCs
Target sequence in this assay (P25942 21-277): as above

[5] = target: T1, Full length human CD40 (huCD40) on cells; test: flow cytometry, Raji cells
Target sequence in this assay (P25942 21-277): as above

[6] = target: T1, Full length human CD40 (huCD40) on cells; test: flow cytometry, human B cells
Target sequence in this assay (P25942 21-277): as above

[7] = target: T2, Macaca fascicularis (cyno) CD40 (cCD40) on cells (Macaca fascicularis (cynomolgus), UniProt P25942 21-277 (human entry)); test: flow cytometry, cyno mature DCs
T2 construct: CD40 on cyno mature DCs
T2 chain: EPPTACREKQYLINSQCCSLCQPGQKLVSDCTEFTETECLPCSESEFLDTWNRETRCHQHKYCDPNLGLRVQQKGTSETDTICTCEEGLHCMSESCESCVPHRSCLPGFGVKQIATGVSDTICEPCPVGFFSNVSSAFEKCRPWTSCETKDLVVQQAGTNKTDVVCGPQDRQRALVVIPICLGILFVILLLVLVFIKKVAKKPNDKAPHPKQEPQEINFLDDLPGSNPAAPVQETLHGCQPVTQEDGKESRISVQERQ
Protocol: (§1) Human monocytes were isolated from either frozen/fresh PBMC using CD14 negative isolation kit per manufacturer's protocol (MACS Miltenyi). Cyno monocytes were isolated from fresh PBMC using CD14 positive isolation kit per manufacturer's protocol (MACS Miltenyi). To generate DCs, monocytes were cultured for 5 days in complete media RPMI (Invitrogen) in the presence of 100 ng/ml human GM-CSF and human IL-4 (Peprotech) and media was replenished every 2 days. On day 5, DCs were stimulated with 100 ng/ml LPS (Sigma) for 24 hours. Cells were then stained with each of the tested CD40 antibody at different concentration in flow cytometry buffer (PBS+1% FBS; BD Bioscience) in 100 μl volume for 30 minutes on ice followed with two washes with flow buffer. Cells were then stained for additional 30 minutes on ice with APC-conjugated anti human IgG (Jackson ImmunoResearch) at the recommended dilution 1:100 and washed twice with flow buffer. Cells were analyzed for percent positive and Mean Fluorescence Intensity (MFI) to determine the antibody binding using Fortessa (BD Bioscience).
(§2) The experiments were conducted using assays described above. 20 antibodies were characterized further based on their binding to human DCs, cyno DCs, Raji cells and HEK-Blue™ CD40L cells.

[8] = target: T1, Full length human CD40 (huCD40) on cells; test: flow cytometry, human mature DCs
Protocol: as §1, §2
Target sequence in this assay (P25942 21-277): as the sequence (P25942 21-277) above

[9] = target: T1, Full length human CD40 (huCD40) on cells; test: flow cytometry, HEK-Blue CD40L cells
[10] = target: T1, Full length human CD40 (huCD40) on cells; test: flow cytometry, HEK-Blue CD40L cells; remark: listed apart in the source
[11] = target: T1, Full length human CD40 (huCD40) on cells; test: flow cytometry, human DCs; separate experiment
[12] = target: T1, Full length human CD40 (huCD40) on cells; test: flow cytometry, human B cells; separate experiment
[13] = target: T1, Full length human CD40 (huCD40) on cells; test: flow cytometry, HEK-Blue CD40L cells; separate experiment
cyno CD40 (SPR analyte) [14] = target: T3, cyno CD40 (SPR analyte) (Macaca fascicularis (cynomolgus), UniProt P25942 21-193 (human entry), limits assumed); test: SPR ProteOn XPR36, mAb captured by anti-human IgG Fc, cyno CD40 as analyte, 25 C; mean of n = 3 (SD 0.07E-03)
T3 construct: also called cCD40-ECD
T3 chain: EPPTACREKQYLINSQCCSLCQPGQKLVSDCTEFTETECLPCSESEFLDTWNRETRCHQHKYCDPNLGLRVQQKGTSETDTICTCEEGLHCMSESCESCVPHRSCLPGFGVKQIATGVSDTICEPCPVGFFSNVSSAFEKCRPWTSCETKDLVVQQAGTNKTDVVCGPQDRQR
Protocol: (§3) Affinity measurements were performed using Surface Plasmon Resonance (SPR) using a ProteOn XPR36 system (BioRad). […] Approximately 5000 RU (response units) of mAbs were immobilized. The kinetic experiments were performed at 25° C. in running buffer (DPBS+0.01% P20+100 μg/ml BSA). To perform kinetic experiments, 200 RU of mAbs were captured followed by injections of analytes (human or cyno CD40) at 5 concentrations (in a 4-fold serial dilution). The association phase was monitored for 3 minutes at 50 μL/min, then followed by 15 minutes of buffer flow (dissociation phase). The chip surface was regenerated with two 18 second pulses of 100 mM H₃PO₄ (Sigma, Cat#7961) at 100 μL/min.
(§4) The collected data were processed using ProteOn Manager software. First, the data was corrected for background using inter-spots. Then, double reference subtraction of the data was performed by using the buffer injection for analyte injections. The kinetic analysis of the data was performed using a Langmuir 1:1 binding model. The result for each mAb was reported in the format of Ka (On-rate), Kd (Off-rate) and KD (equilibrium dissociation constant).

cyno CD40 (SPR analyte) [15] = target: T3, cyno CD40 (SPR analyte); test: SPR ProteOn XPR36, mAb captured by anti-human IgG Fc, cyno CD40 as analyte, 25 C; mean of n = 3 (SD 0.24E-09)
Protocol: as §3, §4
(§5) The parameters reported in this table were obtained from a 1:1 Langmuir binding model for all samples. Affinity, KD=kd/ka.

cyno CD40 (SPR analyte) [16] = target: T3, cyno CD40 (SPR analyte); test: SPR ProteOn XPR36, mAb captured by anti-human IgG Fc, cyno CD40 as analyte, 25 C; mean of n = 3 (SD 1.02E+05)
Protocol: as §3, §4

human CD40 (SPR analyte) [17] = target: T4, human CD40 (SPR analyte) (human, UniProt P25942 21-193); test: SPR ProteOn XPR36, mAb captured by anti-human IgG Fc, CD40 as analyte, 25 C; mean of n = 5 (SD 0.97E-03); did not fit well to 1:1 model
T4 construct: also called huCD40-ECD
Protocol: as §3, §4, §5

human CD40 (SPR analyte) [18] = target: T4, human CD40 (SPR analyte); test: SPR ProteOn XPR36, mAb captured by anti-human IgG Fc, CD40 as analyte, 25 C; mean of n = 5 (SD 1.51E-09); did not fit well to 1:1 model
Protocol: as §3, §4, §5

human CD40 (SPR analyte) [19] = target: T4, human CD40 (SPR analyte); test: SPR ProteOn XPR36, mAb captured by anti-human IgG Fc, CD40 as analyte, 25 C; mean of n = 5 (SD 1.83E+05); did not fit well to 1:1 model
Protocol: as §3, §4, §5

B1: C40M9 (antibody, human IgG1, lambda, V domains shown)
VH: QLQLQESGPGLVKPSEILSLTCTVSGGSISSSSYYWGWIRQPPGKGLEWIGNIYYRGDTYYSPSLKSRVTISVDTSKNQFSLKLNSVTAADTAVYYCAKGFRFDYWGQGTLVTVSS
VL: QSALTQPPSASGSPGQSVTISCTGTSSDVGGYNYVSWYQQHPGKAPKLMIYEVSKRPSGVPDRFSGSKSGNTASLTVSGLQAEDEADYYCSSYAGSNNLVFGGGTKLTVLG
[1]
  B cells EC50, CD23 surface expression, with cross-linker: 2.87 ng/mL
  B cells EC50, CD80 surface expression, with cross-linker: 13.1 ng/mL
  B cells EC50, CD83 surface expression, with cross-linker: 0.00668 ng/mL
  B cells EC50, CD86 surface expression, with cross-linker: 0.0109 ng/mL
  B cells EC50, HLA-DR surface expression, with cross-linker: 0.012 ng/mL
[2]
  DC EC50, CD80 surface expression, with cross-linker: 27.7 ng/mL
  DC EC50, CD83 surface expression, with cross-linker: 39.8 ng/mL
  DC EC50, CD86 surface expression, with cross-linker: 103 ng/mL
  DC EC50, HLA-DR surface expression, with cross-linker: 79.7 ng/mL
[3]
  EC50, Human B cells (CD83): 0.766 ng/mL
  EC50, Human B cells (CD83), separate experiment: 0.145 ng/mL
  EC50, Human DC (HLA-DR): 118 ng/mL
  EC50, Human DC (HLA-DR), separate experiment: 16.7 ng/mL
  EC50, agonistic activity on HEK-Blue™ CD40L cells (NF-κB/SEAP): 13.8 ng/mL
  EC50, agonistic activity on HEK-Blue™ CD40L cells (NF-κB/SEAP), separate experiment: 6.21 ng/mL
[4]
  EC50: 152 ng/mL
[5]
  EC50: 57.1 ng/mL
[6]
  EC50: 60.9 ng/mL
[7]
  EC50: 45.1 ng/mL
[8]
  EC50: 123 ng/mL
[9]
  EC50: 94.2 ng/mL
[10]
  EC50: 143 ng/mL
[11]
  EC50: 46.2 ng/mL
[12]
  EC50: 19.1 ng/mL
[13]
  EC50: 615 ng/mL
Cyno CD40 (SPR analyte) [14]
  koff: 0.00126 s⁻¹
Cyno CD40 (SPR analyte) [15]
  Kd: 1.42 nM
Cyno CD40 (SPR analyte) [16]
  kon: 901000 M⁻¹ s⁻¹
Human CD40 (SPR analyte) [17]
  koff: 0.00285 s⁻¹
Human CD40 (SPR analyte) [18]
  Kd: 4.09 nM
Human CD40 (SPR analyte) [19]
  kon: 727000 M⁻¹ s⁻¹

From patent publication US20170088624A1 (Janssen / Centocor, published 2017)
